This series has as its target MuA transposase (residues 77-663) (Bacteriophage Mu) (UniProt P07636). The note with it: 91/92 nt products; mismatch at center of 5 bp target; 10 mM MgCl2, 30 C; scale: % of strand transfer products at mismatch.

MuA transposase (residues 77-663) (Bacteriophage Mu), sequence (P07636 77-663): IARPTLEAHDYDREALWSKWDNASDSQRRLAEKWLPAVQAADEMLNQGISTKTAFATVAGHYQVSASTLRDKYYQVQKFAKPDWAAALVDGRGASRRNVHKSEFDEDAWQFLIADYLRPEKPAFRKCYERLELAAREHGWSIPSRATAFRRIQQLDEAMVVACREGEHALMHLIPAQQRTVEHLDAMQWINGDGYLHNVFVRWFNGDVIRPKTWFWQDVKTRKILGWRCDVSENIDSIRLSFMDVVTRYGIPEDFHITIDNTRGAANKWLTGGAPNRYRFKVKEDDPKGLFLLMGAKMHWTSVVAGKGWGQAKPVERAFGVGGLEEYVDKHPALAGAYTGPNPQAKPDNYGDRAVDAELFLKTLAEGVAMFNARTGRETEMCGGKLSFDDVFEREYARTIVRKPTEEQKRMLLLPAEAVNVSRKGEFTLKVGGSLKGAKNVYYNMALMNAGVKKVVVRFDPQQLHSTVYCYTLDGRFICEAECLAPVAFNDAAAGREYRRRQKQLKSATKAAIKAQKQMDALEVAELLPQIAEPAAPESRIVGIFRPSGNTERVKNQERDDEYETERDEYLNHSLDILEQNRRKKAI

On to “CGTTCATTAGCACAATCACAGAAGACTAGAATACAACCGCACATAAGATCAGAAGTTAACTAGCACTAGTACTTGC (double strand) [single mismatch target 76 bp]”, for which the activity stood at 90.

(Values after US20040191821.)
